Experimental data reported in paper PMC4960888, “Gd-nanoparticles functionalization with specific peptides for ß-amyloid plaques targeting” (Journal of Nanobiotechnology, 2016).
“Also recorded” adds a separate entry of the source.

Legend:
SH-SY5Y = experiment: MTT cell viability
Procedure: The innocuousness of the grafted Nps was assessed using a neuronal cell line SH-SY5Y. The cell viability was assessed using the 3-(4,5-dimethylthiazol-2yl)-2,5-diphenyltetrazolium bromide (MTT) assay^63. SH-SY5Y cells were cultured in DMEM/F12 medium supplemented with 10 % fetal bovine serum and 1 % penicillin -streptomycin /amphotericin B. For the assay, the cells were plated at a density of 50 000 cells/well in 200 µl of medium. […] Nps were added to the cells and incubated at 37 °C, 5 % CO2. One hour later, 10 μL of MTT solutions (12 mM) was added into each well, and the plates were incubated for another 2 h at 37°C, 5% CO2. The culture medium was removed, and the precipitated cells were lysed using DMSO. After 10 minutes, the purple crystals were dissolved completely; the cell viability was calculated from the absorbance signals measured by a plate reader (Tecan Infinite M200) at 540 nm. The absorbance of the wells containing medium-only, corresponding to the background, were subtracted from the value of each reading. Data are expressed in % of cell viability, each MTT analysis was carried out on triplicate samples.

[1] = Dynamic light scattering, hydrodynamic diameter; type: physicochemical; conditions: DLS, Zetasizer NanoS, 532 nm, 10 mM Gd^3+, 0.2 µm filtered; measurement repeated 8 times
Procedure: Hydrodynamic diameters (DH) of the Nps were determined with a Zetasizer NanoS (laser He–Ne 532 nm) from Malvern Instrument® (5 mW, with 173° NIBS detector and narrow band filter). Attenuator was optimized by the device and position was set to the center of the cell. To perform the measurement, 1 mL of nanoparticles suspensions at 10 mM Gd^3+ was poured in a 12 mm square polystyrene disposable cuvette after filtration on a 0.2 µm cut-off nylon filter. Each measurement was repeated 8 times.

[2] = Relaxivity measurements (60 MHz, 37 °C); type: physicochemical; conditions: 60 MHz (1.4 T), Bruker minispec mq60, Gd^3+ concentration by ICP-OES
Procedure: Relaxivity measurements were performed on a Bruker® minispec mq60NMR analyzer (Brucker, USA) at 37 °C at 1.4 T (60 MHz). Samples were measured at a specific Gd^3+ concentration (mM), calculated from ICP-OES. The longitudinal relaxation time T1 and the transverse relaxation time T2 (s) were measured at 60 MHz and at 37 °C. Then the relaxivities ri (s^−1 mM^−1) were obtained according to the following formula: 1/Timeasured=1/Tiwater+riGd^3+ where i = 1 or 2.

[3] = tested on: Aβ amyloid plaques (APPswe/PS1A246E/TTR(−/−) transgenic mouse brain sections); conditions: cited from earlier work
Procedure: The specificity of functionalized nanoparticles binding was verified, by incubating nanoparticles without grafted-peptides, AGuIX@PEG@Cy5.5, on brain section containing amyloid burden. […] Whereas, various other cyanine derivative d ...

[4] = tested on: Aβ amyloid plaques (APPswe/PS1A246E/TTR(−/−) transgenic mouse brain sections); experiment: Immunohistochemistry on AD mouse brain sections with amyloid plaques; conditions: 10 months old APPswe/PS1A246E/TTR(−/−) hippocampus, nanoparticles at 3 nM Cy5.5 (2 mM Gd^3+) with 3 mM ungrafted nanoparticles, or PIB 1 µM, 1h30 RT, fluorescence
fibrils = experiment: Cy5.5 staining of fibrils in vitro (personal data); type: binding; conditions: in vitro on fibrils (personal data)
amyloid fibrils = conditions: cited from earlier work
Excerpt: Currently, magnetic resonance imaging (MRI) is the preferred neuroimaging examination for AD as it allows an accurate measurement of brain structures’ volume, although a decrease of this latter appears to be a nonspecific and late feature of cerebral vascular diseases’ progression. Thus, studies are under way to develop specific imaging markers for different types of dementia, including markers of senile plaques for very-high-field MRI and positron emission tomography (PET). A better characterization of the amyloid plaque presence and load in the brain can be also expected from i ...

V30M-TTR fibrils = experiment: SPR binding to V30M-TTR fibrils; parameters: species or system human; conditions: 800 R.U. V30M-TTR fibrils, 0.02–6.4 mM in peptide, R.U. 141 s after end of injection
Excerpt: N-(3-Dimethylaminopropyl)-N′-ethylcarbodiimide hydrochloride (EDC, >98.0 %), N-hydroxysuccinimide (NHS, >97.0 %), gadolinium chloride hexahydrate ([GdCl3·6H2O], 99 %), sodium hydroxide (NaOH, 99.99 %), hydrochloric acid (HCl, 36.5–38 %), sodium chloride (NaCl, >99.5 %), dimethyl sulfoxide (DMSO, >99.5 %), acetonitrile (CH3CN, >99.9 %), trifluoroacetic acid (TFA, >99 %), trinitrobenzene sulfonic acid (TNBS) 1 M in water, sodium dodecyl sulfate (SDS, >99 %), (3-aminopropyl)triethoxysilane (APTES, >98 %), tetraethyl orthosilicate (TEOS; >98 %) and Poly(ethylene glycol) bis(carboxymethyl) ether (PEG) with an average molecular weight Mn = 250 g mol^−1 were purchased from Aldrich Chemical (France) and used without further purification. Diethylene glycol (DEG, 99 %) was purchased from SDS Carlo Erba (France). Acetone (reagent grade) was purchased from Sodipro (France) and was used as received. […] Recombinant human V30M-TTR protein was obtained following cloning its gene in the plasmid pQE81L and its expression in Escherichia coli (M15). Briefly, bacterial cultures were performed in LB medium, 100 µg mL^−1 ampicillin and 25 µg mL^−1 kanamycin, at 37 °C, under constant orbital shaking. Protein production was pursued for 7 h after IPTG induction when the absorbance was 0.700 at 600 nm. The bacterial pellet of 50 mL of culture was resuspended in sodium phosphate 50 mM, pH 8, sodium chloride 300 mM, imidazole 10 mM, betamercaptoethanol 10 mM, supplemented with 500 µL of a protease inhibitor, phenylmethylsulfonyl fluoride (Sigma, #78830), at 1 mM final and a cocktail of protease inhibitor EDTA-free (Roche, #11873580001). The suspension was sonicated during a total time of 6 min with repeated cycles of 5/7 s off with an amplitude of 20 %, then centrifuged during 30 min at 100,000g, to pellet cellular debris. The supernatant was filtered on 0.2 µm cut off filters. The purification of the protein was performed on immobilized metal ion chromatography (Chelating Fast Flow, Amersham #17057501), and dialyzed against 20 mM·NH4HCO3 (membrane cutoff 1/10,000; 3500 MWCO Spectrapore). Finally, the protein was freeze-dried. The protein quality was checked by SDS PAGE gel 15 %. The Pittsburgh compound-B (PIB) derivative molecule was synthetized according to the procedure already described in the literature. Starting from the p-anisidine, the p-nitrobenzoyl amide was readily obtained and then the corresponding thioamide was prepared by reaction with Lawesson’s reagent. Finally, an oxidative cyclization was done to lead to the benzothiazole derivative, and the nitro function was reduced to give compound (Synthesis’ details in Additional file 1). […]

Aβ(1–42) fibrils [5] = molecular target: T1, Aβ(1–42) fibrils (Homo sapiens, UniProt P05067); experiment: SPR binding to Aβ(1–42) fibrils
T1 construct: Freeze-dried Aβ(1–42) peptide (Genecust) was dissolved in distilled water at pH 11.0; purchased Genecust (Luxembourg)
T1 sequence (P05067 672-713): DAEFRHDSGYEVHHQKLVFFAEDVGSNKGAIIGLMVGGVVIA
Procedure: The surface plasmon resonance assays were performed using a BIAcore® 2000 biosensor. The instrument was equipped with a CM3 sensor chip (GE Healthcare®, Uppsala, Sweden). The interaction studies took place on a gold chip functionalized with carboxymethylated dextran. The sensor surface itself form one wall of a flow cell, which is an integral part of the microfluidic system. All SPR experiments were performed at 25 °C. HEPES buffer (HBS-P, GE Healthcare®, 0.01 M HEPES, 0.15 M NaCl, 0.005 % surfactant p20) was used as running buffer.
For immobilization, amine coupling reagents were obtained from the GE Healthcare® kit containing 0.2 M EDC in water, 0.05 M NHS in water and ethanolamine-HCl pH 8.5. […] Aβ(1–42) and V30M-TTR fibrils were immobilized on the flow cell 2 and 4 respectively of a CM3 sensor chip with an amine coupling reaction. After the chip activation by EDC/NHS during 7 min, the fibrils were injected at: 10 µM in 10 mM sodium acetate pH 4 at a flow rate of 5 µL min^−1 during 20 min for Aβ(1–42) fibrils or at 0.36 µM in 10 mM sodium acetate pH 5.5 at a flow rate of 5 µL min^−1 during 100 min for V30M-TTR fibrils. […]
Biacore® experiments gathered data from 3 cycles for each studied analyte. […] Results of the interaction between the analytes and the Aβ(1–42) or V30M-TTR fibrils were represented on a sensorgram expressed as respectively FC2-1 or FC4-3 (RU-RUdextran) versus time. […]

Aβ(1–42) fibrils [6] = molecular target: T1, Aβ(1–42) fibrils; experiment: Partition (spectrofluorometric) binding to Aβ(1–42) fibrils; conditions: 20 µM fibrils, 2 µM nanoparticles, saturated with 3 mM AGuIX, 60 min; data not shown

LPFFD [AGuIX@PEG@LPFFD, LPFFD grafted to AGuIX@PEG by amide formation, 1.6 ± 0.2 peptide per particle]
cells alive (Fig. S7) (SH-SY5Y; 1 h at 37 °C, 5 % CO2, up to 2 mM nanoparticles, MTT 2 h, 540 nm, triplicate): more than 80%
hydrodynamic diameter [1]: 3.2 ± 0.8 nm
r1 (longitudinal relaxivity) [2]: 13.2 s⁻¹ mM⁻¹

Cy5.5 [reference compound]
staining by Cy5.5 on brain section of AD mouse model [3]: does not stain fibrils
binding/staining of amyloid plaques in AD mouse brain sections [4]: non-binding of Cy5.5 dye to amyloid plaque; also recorded: background due to the Cy5.5 restricted to blood vessels
staining of fibrils by Cy5.5 molecule (fibrils): does not stain fibrils

CNC[C@H](O)[C@@H](O)[C@H](O)[C@H](O)CO.O=C([O-])CN1CCN(CC(=O)[O-])CCN(CC(=O)O)CCN(CC(=O)[O-])CC1.[Gd+3] [DOTAREM®, reference compound]
r1 (longitudinal relaxivity) [2]: 3.4 s⁻¹ mM⁻¹

CNc1ccc(-c2nc3ccc(O)cc3s2)cc1 [Pittsburgh compound B, [^11C]2-(4′-methylaminophenyl)-6-hydroxybenzothiazole]
binding to amyloid fibrils (amyloid fibrils): binds with high affinity to any amyloid fibrils

LPFFD [AGuIX@PEG@LPFFD@Cy5.5, AGuIX@PEG@LPFFD labeled with cyanine 5.5, 1 dye for 170 Np]
interaction with V30M-TTR fibrils (V30M-TTR fibrils): no specific interaction
interaction with V30M-TTR fibrils (V30M-TTR fibrils; listed as LPFFD-grafted): did not interact with V30M-TTR fibrils
interaction (R.U. remaining 141 s after end of injection) (Aβ(1–42) fibrils [5]; 2.5 mM in Gd^3+): interact with Aβ(1–42) fibrils
interaction over nanoparticle concentration range (Aβ(1–42) fibrils [5]; 0.02–6.4 mM in peptide, R.U. 141 s after end of injection): displayed an interaction on Aβ(1–42) fibrils (blue curves) dependent on nanoparticle concentrations injected
cells alive (SH-SY5Y; 5 mM Gd^3+, MTT): more than 75%
cells alive (SH-SY5Y; 1 h incubation, 0.5 to 2 mM Gd^3+, MTT): more than 80%
toxic effects on cells (SH-SY5Y; MTT, up to 5 mM Gd^3+): do not exhibit any toxic effects on cells
binding/staining of amyloid plaques in AD mouse brain sections [4]: beta-amyloid plaques were visualized; also recorded: bind selectively amyloid plaque constituted by Aβ protein
binding/staining of amyloid plaques in AD mouse brain sections ([4]; listed as LPFFD-grafted): recognized and bound the Aβ amyloid plaque localized in the mouse hippocampus
Cy5.5 fluorescence associated with fibrils (Aβ(1–42) fibrils [6]): no fluorescence has been detected associated with fibrils

KLVFF [AGuIX@PEG@KLVFF]
hydrodynamic diameter [1]: 3.5 ± 0.9 nm
r1 (longitudinal relaxivity) [2]: 14.1 s⁻¹ mM⁻¹

KLVFF [AGuIX@PEG@KLVFF@Cy5.5]
interaction with V30M-TTR fibrils (V30M-TTR fibrils): no specific interaction
interaction with V30M-TTR fibrils (V30M-TTR fibrils; listed as KLVFF-grafted): did not interact with V30M-TTR fibrils
binding/staining of amyloid plaques in AD mouse brain sections [4]: beta-amyloid plaques were visualized; also recorded: bind selectively amyloid plaque constituted by Aβ protein
binding/staining of amyloid plaques in AD mouse brain sections ([4]; listed as KLVFF-grafted): recognized and bound the Aβ amyloid plaque localized in the mouse hippocampus
